Reference: patent US20250368754A1 (KANAPH THERAPEUTICS, published 2025)

T1: recombinant human FAP (human, UniProt Q12884 26-760)
T1 construct: also called rhFAP
T1 sequence (looked up): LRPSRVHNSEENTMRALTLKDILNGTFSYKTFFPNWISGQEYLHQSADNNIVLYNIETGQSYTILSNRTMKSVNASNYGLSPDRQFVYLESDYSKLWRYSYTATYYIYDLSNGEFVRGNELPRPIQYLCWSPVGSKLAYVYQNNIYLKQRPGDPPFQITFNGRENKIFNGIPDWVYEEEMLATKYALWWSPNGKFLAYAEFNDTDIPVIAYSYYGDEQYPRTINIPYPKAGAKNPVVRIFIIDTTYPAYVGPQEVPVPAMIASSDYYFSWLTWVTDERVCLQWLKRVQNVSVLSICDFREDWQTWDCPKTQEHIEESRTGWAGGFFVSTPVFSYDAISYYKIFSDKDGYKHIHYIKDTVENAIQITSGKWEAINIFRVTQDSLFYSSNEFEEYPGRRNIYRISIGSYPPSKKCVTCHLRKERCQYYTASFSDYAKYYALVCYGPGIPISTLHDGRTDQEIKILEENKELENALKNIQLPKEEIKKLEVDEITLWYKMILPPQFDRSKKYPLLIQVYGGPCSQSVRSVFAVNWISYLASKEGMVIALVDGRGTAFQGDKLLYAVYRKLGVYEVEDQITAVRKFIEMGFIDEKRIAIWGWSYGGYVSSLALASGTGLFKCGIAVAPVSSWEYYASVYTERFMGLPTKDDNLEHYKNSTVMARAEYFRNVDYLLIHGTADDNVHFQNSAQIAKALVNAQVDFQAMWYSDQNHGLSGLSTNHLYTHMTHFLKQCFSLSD

T2: human FAP on HEK293-hFAP cells (human, UniProt Q12884 1-760)
T2 construct: whole, on cells; also called human FAP-expressing cell line
T2 sequence (looked up): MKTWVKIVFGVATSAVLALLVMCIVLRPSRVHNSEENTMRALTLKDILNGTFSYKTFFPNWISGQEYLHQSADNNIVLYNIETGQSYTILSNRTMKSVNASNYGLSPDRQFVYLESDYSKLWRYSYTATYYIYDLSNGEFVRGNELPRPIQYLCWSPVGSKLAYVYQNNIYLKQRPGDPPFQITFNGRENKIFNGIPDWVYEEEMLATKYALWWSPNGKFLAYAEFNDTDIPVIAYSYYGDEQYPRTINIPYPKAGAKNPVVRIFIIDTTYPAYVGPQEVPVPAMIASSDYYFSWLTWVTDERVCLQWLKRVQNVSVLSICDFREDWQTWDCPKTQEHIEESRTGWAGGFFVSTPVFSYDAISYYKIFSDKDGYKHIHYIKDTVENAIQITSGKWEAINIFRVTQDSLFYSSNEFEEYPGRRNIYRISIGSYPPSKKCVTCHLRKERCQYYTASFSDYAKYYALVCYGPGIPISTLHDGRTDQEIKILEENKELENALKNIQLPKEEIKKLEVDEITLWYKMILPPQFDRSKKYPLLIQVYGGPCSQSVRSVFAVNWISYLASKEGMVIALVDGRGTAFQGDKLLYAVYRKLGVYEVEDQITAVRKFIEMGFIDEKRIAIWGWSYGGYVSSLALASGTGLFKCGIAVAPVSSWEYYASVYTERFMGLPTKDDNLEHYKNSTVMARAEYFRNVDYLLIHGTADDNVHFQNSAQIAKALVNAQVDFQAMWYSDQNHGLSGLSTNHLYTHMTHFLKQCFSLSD

B1: T3.01 (anti-hu FAP/hu scLIGHT3, hu IgG1 DANG) (bispecific antibody)
heavy: QVQLVQSGAEVKKPGASVKVSCKTSRYTFTEYTIHWVRQAPGQRLEWIGGINPNNGIPNYNQKFKGRVTITVDTSASTAYMELSSLRSEDTAVYYCARRRIAYGYDEGHAMDYWGQGTLVTVSSASTKGPSVFPLAPSSKSTSGGTAALGCLVKDYFPEPVTVSWNSGALTSGVHTFPAVLQSSGLYSLSSVVTVPSSSLGTQTYICNVNHKPSNTKVDKKVEPKSCDKTHTCPPCPAPELLGGPSVFLFPPKPKDTLMISRTPEVTCVVVAVSHEDPEVKFNWYVDGVEVHNAKTKPREEQYGSTYRVVSVLTVLHQDWLNGKEYKCKVSNKALPAPIEKTISKAKGQPREPQVYTLPPSRDELTKNQVSLWCLVKGFYPSDIAVEWESNGQPENNYKTTPPVLDSDGSFFLYSKLTVDKSRWQQGNVFSCSVMHEALHNHYTQKSLSLSPGK
light: not shown
chain: not shown
notes: Knob-into-hole heterodimer: one anti-FAP Fab arm and one single-chain human LIGHT (91-240) homotrimer arm
B2: T3.14 (anti-hu FAP/hu scLIGHT-LTb2, hu IgG1 DANG) (bispecific antibody)
heavy: B1 heavy
light: not shown
chain: not shown
notes: Knob-into-hole; single-chain heterotrimer of one human LIGHT and two human lymphotoxin beta (87-243)

Assays:
recombinant human FAP = biological target: T1, recombinant human FAP; assay: SPR, fusion protein captured by anti-human IgG (Fc) on CM5, recombinant human FAP as analyte, 1:1 binding model
Protocol: Specifically, the surface of the CM5 chip was activated with a 1:1 mixture of […] NHS (N-hydroxysuccinimide) and 200 nM EDC (1-ethyl-3-(3-dimethylaminopropyl)carbodiimide), and 20 μg/mL of anti-human IgG (Fc) antibody was immobilized for 400 seconds at a rate of 10 μL/min. The remaining active ester groups were blocked with 1 M ethanolamine. T3.01, T3.07, and T3.14 were diluted to 2 μg/mL, 1 μg/mL, and 2 μg/mL, respectively, and reacted on the CM5 chip immobilized with the anti-human IgG (Fc) antibody. The recombinant human FAP was diluted to 50 nM or 100 nM in 1×HBS-EP+buffer solution and diluted by serial dilution. The diluted recombinant human FAP was reacted at a rate of 30 μL/min. The association and dissociation times were 180 seconds and 400 seconds, respectively. After the dissociation step, stabilization was performed for 60 seconds, and then the regeneration step was performed for 30 seconds with a 10 mM glycine pH 1.5 solution at a rate of 30 μL/min.

[1] = biological target: T2, human FAP on HEK293-hFAP cells; assay: flow cytometry on HEK293-hFAP cells, 1 µg protein, anti-human IgG detection
Protocol: Specifically, the cell line was prepared by suspending in a FACS buffer solution at 1×10⁵ cells/100 μL, and treated with 1 μg each of T3.10, T3.01, T3.05, T3.06, T3.14, and T3.18. The cells were washed twice with a FACS buffer solution. The cells were stained with an anti-human IgG antibody (Biolegend). The negative control sample was stained only with an anti-human IgG antibody (Biolegend). The expression ratio of the stained cells was measured using BD LSR and analyzed using FlowJo software.

human LTβR on A375 cells = biological target: T3, human LTβR on A375 cells (human, UniProt P36941 31-435); assay: flow cytometry on A375 cells, serial dilution from 500 nM, anti-human IgG detection
T3 construct: whole, on cells; Endogenous receptor of a human cell line; also called LTβR expressing A375 cells; LTβR expressing cell line
Protocol: Specifically, the A375 cell line was prepared by suspending in a FACS buffer solution at 1×10⁵ cells/100 μL, and treated with 100 μL each of T3.01, T3.07, T3.04, and T3.18 prepared by suspending at 500 nM and diluting by serial dilution. The cells were washed twice with a FACS buffer solution. The cells were stained with an anti-human IgG antibody (Biolegend). The expression ratio of the stained cells was measured using BD LSR and analyzed using FlowJo software.

[2] = biological target: T4, recombinant human lymphotoxin beta receptor (LTβR) (human, UniProt P36941 28-227, limits assumed); assay: SPR, human LTβR immobilised on CM5, fusion protein as analyte, 1:1 binding model
T4 construct: neither construct is described; also called human LTβR; recombinant human LTβR protein
Protocol: Specifically, the surface of the CM5 chip was activated with a 1:1 mixture of […], and 5 μg/mL of human LTβR was immobilized for 60 seconds at a rate of 10 μL/min. The remaining active ester groups were blocked with 1 M ethanolamine. […] The diluted fusion proteins were reacted at a rate of 30 μL/min. The association and dissociation times were 180 seconds and 400 seconds, respectively. After the dissociation step, stabilization was performed for 60 seconds, and then the regeneration step was performed for 30 seconds with a 10 mM glycine pH 1.5 solution at a rate of 30 μL/min.

T4 sequence (P36941 28-227 limits assumed): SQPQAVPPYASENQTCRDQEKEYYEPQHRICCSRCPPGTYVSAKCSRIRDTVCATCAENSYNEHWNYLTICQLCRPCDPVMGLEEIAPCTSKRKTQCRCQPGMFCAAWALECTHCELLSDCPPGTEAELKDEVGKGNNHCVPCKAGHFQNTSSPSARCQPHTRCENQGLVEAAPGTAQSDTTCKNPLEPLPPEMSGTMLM
T3 sequence (P36941 31-435): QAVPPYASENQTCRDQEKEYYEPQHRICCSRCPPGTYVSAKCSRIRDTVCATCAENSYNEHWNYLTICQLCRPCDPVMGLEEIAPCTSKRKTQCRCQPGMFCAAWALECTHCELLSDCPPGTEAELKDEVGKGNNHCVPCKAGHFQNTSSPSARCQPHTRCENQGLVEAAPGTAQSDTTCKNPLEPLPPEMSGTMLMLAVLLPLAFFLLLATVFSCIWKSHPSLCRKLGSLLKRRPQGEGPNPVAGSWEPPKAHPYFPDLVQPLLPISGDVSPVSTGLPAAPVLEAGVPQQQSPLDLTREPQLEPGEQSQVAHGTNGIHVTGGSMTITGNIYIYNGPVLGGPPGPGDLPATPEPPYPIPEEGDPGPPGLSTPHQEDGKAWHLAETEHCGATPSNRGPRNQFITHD

Binder | Kd (recombinant human FAP) | koff (recombinant human FAP) | kon (recombinant human FAP) | percent of cells bound [1] | percent of cells bound (human LTβR on A375 cells) | Kd [2] | koff [2] | kon [2]
B1 | 0.0364 nM | 3.89e-06 s⁻¹ | 107000 M⁻¹ s⁻¹ | ≥ 99% | ≥ 96% | 0.928 nM | 0.000321 s⁻¹ | 346000 M⁻¹ s⁻¹
B2 | 0.0123 nM | 1.53e-06 s⁻¹ | 124000 M⁻¹ s⁻¹ | ≥ 99% |  | 0.29 nM | 0.000434 s⁻¹ | 1.5e+06 M⁻¹ s⁻¹
